Measurements published in patent US7638284B2, “Immunoglobulin A inducing protein and uses therefor” (The Curators of the University of Missouri, priority 2000, dated 2009).

Test system: IGIP transcripts
Assay: RT-PCR of IGIP transcripts in stimulated monocyte derived dendritic cells
Format: cell-based
Settings: human monocyte derived dendritic cells
Protocol: PBMCs were labeled with anti-CD14 microbeads at 4° C. for 45 minutes, washed three times in sorting buffer. Pure CD14+blood monocytes were then separated by AutoMACS, and cultured at 37° C. for 6 days in cRPMI with 1400 U/ml Leukine (rhGM-CSF) and 10 ng/ml rhIL-4. Non-adherent cells were collected at day six, and purity of dendritic cells was determined by flow cytometry.
Enriched dendritic cell cultures were stimulated with rhCD40L, Pam3CSK, Poly I:C, LPS, CpG DNA, or PMA and Ionomycin for 0, 12, 18, 24, 48, and 72 hours. Total RNA was extracted from harvested cells and treated with DNase to remove any potential contaminating DNA. IGIP was amplified by RT-PCR.
Human dendritic cells (DC) were derived from peripheral blood monocytes by culturing in GM-CSF and IL-4 for 6-7 days. IGIP transcripts were detected by RT-PCR in total RNA from approximately 10^6 monocyte derived DC (mDC) following either Toll-like receptor (TLR) binding or CD40 ligation.

B1: CD40L: rhCD40L used to stimulate dendritic cell cultures (protein, UniProt P29965 113-261, looked up)
CD40 ligand, soluble form: MQKGDQNPQIAAHVISEASSKTTSVLQWAEKGYYTMSNNLVTLENGKQLTVKRQGLYYIYAQVTFCSNREASSQAPFIASLCLKSPGRFERILLRAANTHSSAKPCGQQSIHLGGVFELQPGASVFVNVTDPSQVSHGTGFTSFGLLKL
loss of IGIP transcripts post stimulation: no longer detectable after 48 hours | time after stimulation at which IGIP was detectable: approximately 12 hours | time of peak IGIP expression: 24 h
